Measured values published in the Human Domainome abundance scans (Beltran et al. 2025).

B1: Androgen receptor, residues 557 to 632; numbered along this chain, P10275 (parent)
chain: QKTCLICGDEASGCHYGALTCGSCKVFFKRAAEGKQKYLCASRNDCTIDKFRRKNCPSCRLRKCYEAGMTLGARKL

Variants of: B1
Assay: abundance fitness (aPCA) (normalised: wild type 0, dead -1); higher = more abundant; growth selection in yeast, the domain comes from the species named
Conditions: Homo sapiens

Abundance fitness, by site and new letter:
A31: Y 0.086
Q36: C -0.2, T -0.173, E 0.031, R -0.144, H -0.01, G 0.011, L -0.075, W -0.251, M -0.084, F -0.156, K 0.013, Y -0.189, I -0.197, A -0.019, N -0.134, D 0.048, S -0.094, V 0.065, P -0.006
A32: E 0.036, G -0.001, M -0.019, R -0.155, D 0.007, C -0.023, P -0.591, H -0.233, W -0.088, F -0.197, Q 0.034, Y -0.145, S -0.052, V -0.016, I -0.011, L -0.167, T 0.114
D45: A -0.094, M -0.206, F -0.498, E -0.037, S -0.275, G -0.162, T -0.091, V -0.12, W -0.465, P -0.221, L -0.177, C -0.325, N 0.009, Y -0.176, I -0.07, Q 0.176, K 0.101
N44: A -0.064, L -0.251, T -0.159, H -0.229, S -0.076, E -0.031, K -0.177, M -0.083, W -0.344, V -0.343, F -0.158, Y -0.274, I -0.433, C -0.419, D -0.002, G 0.026, R -0.258
Y38: V -0.092, W -0.239, R -0.239, S -0.116, N -0.245, T -0.179, F -0.097, D -0.059, Q -0.072, L -0.046, G -0.222, E -0.064, H -0.231, C -0.305, M -0.036, I 0.111, P -0.007, K -0.085, A -0.057
E33: R -0.042, W -0.25, I 0.03, F -0.343, L -0.173, H -0.153, T -0.058, P -0.135, C 0.072, Q 0.023, A -0.121, K 0.013, Y -0.187, V -0.089, G 0.044, D -0.066, M 0.014
K50: M -0.195, F -0.277, S -0.13, R -0.068, Y -0.124, I -0.26, L -0.027, G -0.146, E -0.124, N 0.087, H -0.087, D -0.403, C -0.103, T -0.068, P -0.007, V -0.063, Q -0.075, W -0.227
R52: H -0.076, N -0.072, P 0.004, W -0.311, Q -0.063, G -0.001, I -0.042, Y -0.09, D 0.047, F -0.164, S -0.087, V 0.041, T 0.067, M -0.067, C -0.087, K -0.033, E -0.003, L -0.044, A -0.157
A41: T -0.056, N -0.165, H -0.279, W -0.187, I -0.275, K -0.368, D 0.041, P -0.12, E -0.079, C -0.18, V 0.01, Q -0.081, S -0.041, R -0.051, F -0.113, M -0.186, L -0.047, G -0.091, Y 0.044
L39: C -0.069, Y 0.045, Q 0.011, S -0.128, V 0.029, T -0.032, G -0.009, N -0.008, H -0.033, E 0.054, W -0.064, K 0.094, R -0.006, P -0.086, M 0.047, D -0.068
C56: L -0.498, H -0.804, R -1.02, V -1.15, S -0.776, N -0.968, K -0.848, T -0.562, I -0.782, Q -1.01, F -0.938, G -1.05, P -0.812, A -0.533, W -0.964, D -0.663, M -0.662
C40: W -1.16, V -0.693, R -0.798, E -0.576, Q -0.482, I -0.948, P -0.756, T -0.554, G -0.891, K -0.632, Y -1.13, S -0.713, D -1.14
C46: W -0.878, A -0.904, H -0.38, P -0.926, Q -0.8, R -0.892, V -0.942, E -0.542, D -0.495, S -0.843, F -0.912, T -0.713, Y -1.06, K -0.735, M -0.914, I -0.784, N -0.711
I48: V -0.02, M -0.154, Y -0.177, S -0.251, F -0.226, W -0.37, P -0.25, C -0.585, H -0.482, L -0.204, E -0.348, G -0.362, D -0.331, Q -0.203, N -0.199
G34: D -0.372
P57: C 0.088, F -0.024, A -0.011, E 0.044, H 0.02, D 0.1
K37: R -0.054, G -0.08, Y -0.178, D -0.009, Q 0.079, H 0.168, T 0.01, N 0.073, I -0.091, F -0.331, S -0.086, M -0.131, V -0.058, C -0.185, W -0.168, A 0.038, L -0.126, P 0.006
K35: G -0.031, S -0.031, I -0.09, C -0.007, Q 0.007, P 0.074, E 0.084, W -0.213, Y -0.034, D -0.118, M 0.018, A -0.093, L -0.135, T 0.039, N -0.093, R 0.004, H -0.044
D49: C -0.538, T -0.165, P -0.482, R -0.342, G -0.197, W -0.402, H -0.382, E -0.066, V -0.512, S -0.139, K -0.317, F -0.613, L -0.502, I -0.283, M -0.448, A -0.283, N -0.188, Y -0.634
T47: N -0.067, L -0.041, Q -0.075, G -0.079, F -0.077, D -0.017, H -0.026, M -0.086, E -0.059, Y -0.071, R -0.108, S -0.015, I -0.03, C -0.077, W -0.244, P 0.007
N55: D 0.032, R -0.06, T -0.012, G -0.073, P -0.099, Q -0.076, E -0.407, Y -0.067, V -0.151, W -0.421, I -0.075, M 0.216, K 0.044, C -0.075, L -0.022, H -0.011, A 0.089
